{"source": "paper doi:10.1101/190033", "about": "(bioRxiv, 2017)", "proteins": {"B1": {"name": "Leeuwenhoekiella blandensis NrdB, thrombin-cleaved (hexahistidine tag removed), used for crystallization (enzyme, Leeuwenhoekiella blandensis MED217)", "chain": "GSHMSSQEIKKIIKRDYSTAPFVLEKITNAIANAMAALGHGSEQDAKLISMQVYESLLNNKEQESEYIPTVEQVQDMVEDKLMSSEFHDVAKAYIIYRNKRALERKTNIFEKRINLKPYEYPELNEYVAAIRHSYWIHTEFNFTSDIQDFKTGLSEVERSAIKNTMLAISQIEVAVKTFWGDVHHRLPKPEIAAVGATFAESEVRHHDAYSHLLEILGLNEEFKELKKKPVIMKRVHYLETSLKHAKSDDDREYTESILLFALFIEHVSLFSQFLIIMAFNKHKNMLKGISNAVEATSKEEQIHGDFGVDIINIIKKENPEWFDEEHNNLIKEMCLNSFEAESKVVDWIFEKGELDFLPKAVINEFLKNRFNKSLEAIGLEKLFDIDEALLQETEWFDDEIIGTKHGDFFVKRSINYSKRTQSITSDDLF"}, "B2": {"name": "Leeuwenhoekiella blandensis class I ribonucleotide reductase catalytic subunit NrdAi (NrdA) (enzyme, Leeuwenhoekiella blandensis MED217, UniProt A3XHF8 1-600, looked up)", "chain": "MRENTTKLENSTETNVQHTKDNDLLKARRDALQDATEKNTDEPSFDWLTEHSRSFLAAGYLSEGVSAEERIREIADRAEEILRMPGFSDKFYKYMGEGYFSLASPVWSNFGKKRGLPISCFGSHIDDDMGNILYTQSEVGMMSKLGGGTSGYFGKIRHRGAAVKNNGYASGAVHIMQLFDKMVDVVSQGSVRRGRFSPYLPISHPDIKEFLEIGTEGNSIQQLTHGVTVDSTWMQEMIDGDTDKREVWAKVLQRRGEMGYPYIFYTDNANNGKPDVYKDKGHDIYASNLCTEIMLPSSDEWSFVCVLSSINVLHYDKWKNTDAVETMVCFLDAVLTEFIDKLEEYRDSDNRDHRQTFMFMERAYNFAKSNRALGLGVLGWHSLLQSKRHAFDSQEAYDLNSEIFREIKQRSYKASEELAEKFGEPETLKGYGRRNATLNAIAPTTSSAFILGQVSQGIEPIWSNVYVKDIAKIKTTIKNPFLEELFEEKGMNTPEVWRSVRDNDGSVQHLEFLTEQEKDVFKTYAEIDQMAIIYQAANRQNHIDQGQSINLLVHPDMPIKEINKIHITAWKLGLKSLYYQHSMNAAQKFKQKKECVSCEA"}, "B3": {"name": "Leeuwenhoekiella blandensis class I ribonucleotide reductase radical-generating subunit NrdBi (NrdB), wild type (enzyme, Leeuwenhoekiella blandensis MED217, UniProt A3XHF9 1-427, looked up)", "chain": "MSSQEIKKIIKRDYSTAPFVLEKITNAIANAMAALGHGSEQDAKLISMQVYESLLNNKEQESEYIPTVEQVQDMVEDKLMSSEFHDVAKAYIIYRNKRALERKTNIFEKRINLKPYEYPELNEYVAAIRHSYWIHTEFNFTSDIQDFKTGLSEVERSAIKNTMLAISQIEVAVKTFWGDVHHRLPKPEIAAVGATFAESEVRHHDAYSHLLEILGLNEEFKELKKKPVIMKRVHYLETSLKHAKSDDDREYTESILLFALFIEHVSLFSQFLIIMAFNKHKNMLKGISNAVEATSKEEQIHGDFGVDIINIIKKENPEWFDEEHNNLIKEMCLNSFEAESKVVDWIFEKGELDFLPKAVINEFLKNRFNKSLEAIGLEKLFDIDEALLQETEWFDDEIIGTKHGDFFVKRSINYSKRTQSITSDDLF"}}, "key": {"crystal structure": {"biological_target": "the molecule itself", "assay": "crystal structure"}, "SEC [1]": {"biological_target": "the molecule itself", "assay": "SEC"}, "SEC [2]": {"biological_target": "the molecule itself", "assay": "SEC", "remark": "listed apart in the source"}, "GEMMA": {"biological_target": "the molecule itself", "assay": "GEMMA"}}}
{"protein": "B1", "values": [{"measurement": "stoichiometry N", "setting": "crystal structure", "value": 4}]}
{"protein": "B2", "values": [{"measurement": "stoichiometry N", "setting": "SEC [1]", "value": 2}]}
{"protein": "B3", "values": [{"measurement": "stoichiometry N", "setting": "SEC [2]", "value": 2}, {"measurement": "stoichiometry N", "setting": "GEMMA", "value": 4}]}
